Where “and” joins values, the source holds several entries; their conditions need not be identical. Equal entries are not always repeated. Where two headings read alike, the source gives them in different places. Blank lines part the entries; values can stand above or below the binder they belong to.
Tests used:
[1] = target: T1, human CD40 (W109L, L121P) Fc fusion (human, UniProt P25942 21-193); assay: SPR (ProteOn XPR36), CD40-Fc captured via anti-human IgG(Fc), dAb as analyte, 25 C
T1 construct: Made by site-directed mutagenesis of the wild type construct; no cleavage site is stated; also called hCD40-M4; hCD40 M4 (W109L, L121P); not shown: human IgG1 Fc

[2] = target: T2, human CD40 (H76R, W109L, L121P) Fc fusion (human); assay: as above
T2 construct: Made by site-directed mutagenesis of the wild type construct; no cleavage site is stated; also called hCD40-M5; hCD40-M5 (H76R, W109L, L121P); not shown: human IgG1 Fc
T2 chain: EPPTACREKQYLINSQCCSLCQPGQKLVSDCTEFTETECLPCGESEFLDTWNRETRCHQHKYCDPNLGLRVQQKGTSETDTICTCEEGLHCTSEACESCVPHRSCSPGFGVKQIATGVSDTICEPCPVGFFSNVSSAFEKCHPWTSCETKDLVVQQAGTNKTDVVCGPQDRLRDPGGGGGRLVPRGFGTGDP

[3] = target: T3, wild type cynomolgus monkey CD40 Fc fusion (cynomolgus monkey (Macaca …)); assay: as above
T3 construct: also called wt-cyno-CD40; wt-cCD40; not shown: human IgG1 Fc
T3 chain: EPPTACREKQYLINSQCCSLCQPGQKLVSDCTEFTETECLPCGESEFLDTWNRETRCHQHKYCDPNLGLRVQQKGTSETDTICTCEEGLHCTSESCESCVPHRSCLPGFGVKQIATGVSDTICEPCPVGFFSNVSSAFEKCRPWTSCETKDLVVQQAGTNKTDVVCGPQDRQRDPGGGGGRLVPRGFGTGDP

[4] = target: T4, human CD40 (BMS, CY24FEB06-01) (human, UniProt P25942 21-193); assay: bead RBA, competition with IZ-CD40L
T4 construct: Soluble reagent of the bead and ELISA RBA; It is detected with an anti-human IgG (Fc) mAb, so it may be a CD40-Ig fusion

[5] = target: T5, human CD40 expressed on stably transfected CHO-DG44 cells (human, UniProt P25942 21-277); assay: CHO-CD40 cell RBA, competition with IZ-CD40L
T5 construct: also called CHO-CD40

biotinylated human CD40 [6] = target: T6, biotinylated human CD40 (human, UniProt P25942 21-193, limits assumed, biotinylated (sites not given)); assay: SPR, BIAcore 3000, dAb injected alone over biotinylated human CD40 on SA chip
T6 construct: Biotinylated human CD40 (supplied by BMS), about 600 RU immobilised on a streptavidin BIAcore chip; also called hCD40

biotinylated human CD40 [7] = target: T6, biotinylated human CD40; assay: SPR, BIAcore 3000 COINJECT over biotinylated human CD40; mixture after first injection; competitor BMS3h-56-5
Protocol: (§1) A BIAcore™ 3000 instrument (GE Healthcare) was used to analyze whether CD40-specific dAbs bound the same CD40 epitope. […] A second flow-cell without any ligand immobilized served as a reference flow-cell for inline referencing. An appropriate dilution of each dAb or Fab to be analyzed was prepared in HBS-EP buffer (0.01 M HEPES pH 7.4 with 0.15 M NaCl, 3 mM EDTA and 0.005% v/v Surfactant P20, GE Healthcare). […] Next, a mixture of the same dAb or Fab as above (at the same final concentration) was prepared with a second dAb or Fab to be analyzed for competition. The COINJECT function of the instrument was used to inject 60 μl of the single-inhibitor dilution across the CD40-immobilized and reference flow-cells in series, followed immediately by a 60 μl injection of the two-inhibitor mixture. Inline subtraction of the signal from the reference cell was performed by the instrument's control software. The experiment was performed at 25° C. and a flow rate of 30 μl/min of HBS-EP. […] The maximum RU obtained for the second injection (the mixture of the two inhibitors) was noted and expressed as a percentage of the RU obtained for the same inhibitor when injected alone.

biotinylated human CD40 [8] = target: T6, biotinylated human CD40; assay: SPR, BIAcore 3000 COINJECT over biotinylated human CD40; mixture after first injection; competitor BMS3h-131-2
Protocol: as §1

biotinylated human CD40 [9] = target: T6, biotinylated human CD40; assay: SPR, BIAcore 3000 COINJECT over biotinylated human CD40; mixture after first injection; competitor BMS3h-37-11
Protocol: as §1

biotinylated human CD40 [10] = target: T6, biotinylated human CD40; assay: SPR, BIAcore 3000 COINJECT over biotinylated human CD40; mixture after first injection; competitor BMS3h-202-11
Protocol: as §1

biotinylated human CD40 [11] = target: T6, biotinylated human CD40; assay: SPR, BIAcore 3000, dAb injected alone over biotinylated human CD40 on SA chip; remark: listed apart in the source
Protocol: as §1

biotinylated human CD40 [12] = target: T6, biotinylated human CD40; assay: SPR, BIAcore 3000 COINJECT over biotinylated human CD40; mixture after first injection; competitor BMS3h-56-5; remark: listed apart in the source
Protocol: as §1

biotinylated human CD40 [13] = target: T6, biotinylated human CD40; assay: SPR, BIAcore 3000, 5 µM dAb alone over biotinylated human CD40
Protocol: as §1

biotinylated human CD40 [14] = target: T6, biotinylated human CD40; assay: SPR, BIAcore 3000 COINJECT over biotinylated human CD40; mixture after first injection; competitor BMS3h-198-1
Protocol: as §1

B1: BMS3h-56-5 (other)
VH: EVQLLESGGGLVQPGGSLRLSCAASGFTFRDYEMWWVRQAPGKGLERVSAINPQGTRTYYADSVMGRFTISRDNSKNTLYLQMNSLRAEDTAVYYCAKLPFTFDDWGQGTLVTVSS
notes: Anti-human CD40 domain antibody (dAb), a single human VH domain
binding result [1]: no binding (tested: 405 nM (highest dAb concentration))
binding result [2]: no binding (tested: 405 nM (highest dAb concentration))
binding result [3]: no binding (tested: 405 nM (highest dAb concentration))

B2: BMS3h-56-202 (other)
VH: EVQLLESGGGLVQPGGSLRLSCAASGFTFRDYEMWWVRQAPGKGLERVSAINPQGTRTYYADSVKGRFTISRDNSKNTLYLQMNSLRAEDTAVYYCAKLPTYFSDRGQGTLVTVSS
notes: as for B1
binding result [1]: no binding (tested: 405 nM (highest dAb concentration))
binding result [2]: no binding (tested: 405 nM (highest dAb concentration))
binding result [3]: no binding (tested: 405 nM (highest dAb concentration))

B3: BMS3h-56-217 (other)
VH: EVQLLESGGGLVQPGGSLRLSCAASGFTFRDYEMWWVRQAPGKGLERVSAINPWGSLTYYADSVKGRFTISRDNSKNTLYLQMNSLRAEDTAVYYCAKLPFTFEDWGQGTLVTVSS
notes: as for B1
binding result [1]: no binding (tested: 405 nM (highest dAb concentration))
binding result [2]: no binding (tested: 405 nM (highest dAb concentration))
binding result [3]: no binding (tested: 405 nM (highest dAb concentration))

B4: BMS3h-56-206 (other)
VH: EVQLLESGGGLVQPGGSLRLSCAASGFTFRDYEMWWVRQAPGKGLERVSAINPQGTRTYYADSVKGRFTISRDNSKNTLYLQMNSLRAEDTAVYHCAKLPMFFEDWGQGTLVTVSN
notes: as for B1
binding result [1]: no binding (tested: 405 nM (highest dAb concentration))
binding result [2]: no binding (tested: 405 nM (highest dAb concentration))
binding result [3]: no binding (tested: 405 nM (highest dAb concentration))

B7: BMS3h-41-9 (other)
VH: EVQLLEPGGGLVQPGGSLRLSCAASGFTFTEYEMIWVRKAPGKGMEWVSSISGNGANTYYADSVKGRFTISRDNSKNTLYLQMNSLRPEDTAVYYCAKEPLRFDDWGQGTLVTVSS
notes: Domain antibody (dAb), single human VH domain
RU first dAb alone (biotinylated human CD40 [11]): 150 RU
Second Injection (% of single dAb RU) (biotinylated human CD40 [12]): 0%

B12: BMS3h-43 (other)
VH: EVQLLESGGGLVQPGGSLRLSCTASGFTFNMYEMSWVRQAPGKGLEWVSGISRRGFTTYYADSVKGRFTISRDNSKNTLYLQMNSLRAEDTAVYYCAKEPITYAMRYARFDYWGQGTLVTVSS
notes: dAb, single VH
EC50 [4]: 100 nM and 50 nM
EC50 [5]: 5000 nM

B13: BMS3h-43-1 (other)
VH: EVQLLESGGGLVQPGGSLRLSCTASGFTFNMYEMSWVRQAPGKGLEWVSGISRRGFTTYYADSVKGRFTISRDNSKNTLYLQMNSLRAEDTAVYYCAKEPITYDLRYARFDYSGQGTLVTVSS
notes: as for B7
RU first dAb alone (biotinylated human CD40 [11]): 210 RU
Second Injection (% of single dAb RU) (biotinylated human CD40 [12]): 22%

B16: BMS3h-217 (other)
VL: DIQMTQSPSSLSASVGDRVTITCRASHFIGTLLSWYQQKPGKAPKLLITYGSLLQSGVPSRFSGSGSGTDFTLTISSLQPEDFATYYCGQGVLWPATFGQGTKVEIKR
notes: dAb, single VK
EC50 [4]: 800 nM
EC50 [5]: 1400 nM

The remaining lines, values ahead:

EC50 [4]: 80 nM
EC50 [5]: 600 nM
B5: BMS3h-198 (other)
VH: EVQLLESGGGLVQPGGSLRLSCAASGFTFAGYEMWWVRQAPGKGLERVSAISGSGGSTYYADSVKGRFTISRDDSKNTLYLQMNSLRAEDTAVYYCAKDPYSFDYWGQGTLVTVSS
notes: dAb, single VH

RU first dAb alone (biotinylated human CD40 [6]): 176 RU
Second Injection (% of single dAb RU) (biotinylated human CD40 [7]): 0.6%
Second Injection (% of single dAb RU) (biotinylated human CD40 [8]): 23.2%
Second Injection (% of single dAb RU) (biotinylated human CD40 [9]): 16%
Second Injection (% of single dAb RU) (biotinylated human CD40 [10]): 39%
B6: BMS3h-198-1 (other)
VH: EVQLLESGGGLVQPGGSLRLSCAASGSTIAGYEMWWVRQAPGKGLERVSAISGSGGSTYYADSVKGRFTISRDDSKNTLYLQMNSLRAEDTAVYYCARDPYSFDYWGQGTLVTVSS
notes: as for B7

Single dAb RU (biotinylated human CD40 [13]): 162 RU
B8: BMS3h-41-13 (other)
VH: EVQLLESAGGLVQPGGSLRLSCAASGFTFAEYEMIWVRQAPGKGLEWVSSISGNGANTYYADSVKGRFTISRDNSKNTLYLQMNSLRAEDTAVYYCAKEPLRFDYWGQGALVTVSS
notes: as for B7

RU first dAb alone (biotinylated human CD40 [6]): 124 RU
Second Injection (% of single dAb RU) (biotinylated human CD40 [7]): 7.3%
Second Injection (% of single dAb RU) (biotinylated human CD40 [8]): 10.3%
Second Injection (% of single dAb RU) (biotinylated human CD40 [14]): 18%
Second Injection (% of single dAb RU) (biotinylated human CD40 [9]): 0.3%
B9: BMS3h-202-11 (other)
VH: EVQLLESGGGLVQPGGSLRLSCAASGFTFPTAEMLWVRKAPGKGLEWVSSISASGGSTYYADSVKGRFTISRDNSKNTLYLQMNSLRAEDAAVYYCAKEPVSYVATFDYWGQGTLVTVSS
notes: as for B7

RU first dAb alone (biotinylated human CD40 [6]): 158 RU
Second Injection (% of single dAb RU) (biotinylated human CD40 [7]): -15%
Second Injection (% of single dAb RU) (biotinylated human CD40 [8]): -3.7%
Second Injection (% of single dAb RU) (biotinylated human CD40 [14]): 6.4%
Second Injection (% of single dAb RU) (biotinylated human CD40 [10]): 42%
B10: BMS3h-37-11 (other)
VH: EVQLLESGGGLVQPGGSLRLSCAASGFTFEWYEMQWVRKAPGKGLEWVSAISGDGYRTYYADSVKGRFTISRDNSKNTLYLQMNSLRAEDTAVYYCAKELGYFDYRGRGTLVTVSS
notes: as for B7

Single dAb RU (biotinylated human CD40 [13]): 282 RU
B11: BMS3h-193-12 (other)
VL: DIQMTQSPSSLSASVGDRVTITCRASQTIERRLNWYQQKPGKAPKLLIYLASRLQSGVPSRFSGSGSGTDFTLTISSLQPEDFATYYCHQYESPPLTFGQGTKVEIKR
notes: Domain antibody (dAb), single human V kappa domain

Single dAb RU (biotinylated human CD40 [13]): 300 RU
B14: BMS3h-43-3 (other)
VH: EVQLLESGGGLVQPGGSLRLSCTASGFTFNMYEMSWVRQAPGKGLEWVSGISRRGFTTYYADSVKGRFTISRDNFKNTLYLQMNSLRAEDTAVYYCAKEPITYDMRYARFDYGGQGTLVTVSS
notes: as for B7

RU first dAb alone (biotinylated human CD40 [6]): 220 RU
Second Injection (% of single dAb RU) (biotinylated human CD40 [7]): 17%
Second Injection (% of single dAb RU) (biotinylated human CD40 [14]): 41%
Second Injection (% of single dAb RU) (biotinylated human CD40 [9]): 25%
Second Injection (% of single dAb RU) (biotinylated human CD40 [10]): 57%
B15: BMS3h-131-2 (other)
VL: DIQMTQSPSSLSASVGDRVTITCRADSSILWALAWYQQKPGKAPKLLIESSSGLQSGVPSRFSGSGSGTDFTLTISSLQPEDFATYYCVQNAVWPGTFGQGTKVEIKR
notes: as for B11

RU first dAb alone (biotinylated human CD40 [11]): 170 RU
Second Injection (% of single dAb RU) (biotinylated human CD40 [12]): 4%
B17: BMS3h-38-2 (other)
VH: EVQLLASGGGLVQPGGSLRLSCAASGFTFEEEEMIWVRQAPGKGLEWVSAISGSGGSTYYADSVKGRFTISRDNSKNTLYLQMNSLRAEDTAVYYCGKEPFRYDYWGQGTLVTVSS
notes: as for B7

— patent US20200199244A1 (published 2020)
